Laboratory results published in patent publication US20240352445A1 (published 2024).

What was measured:
[1] = molecular target: SARS-CoV-2 spike protein trimer, wild type (SARS-CoV-2, UniProt P0DTC2 16-1213)

| Binder | IC50 (Epsilon (B.1.427)) | IC50 [1] |
| --- | --- | --- |
| hN2F (antibody, V domains shown) VH: EVQLVESGGGLVQPGGSLRLSCTVSGFSLSTYAMSWVRQAPGKGLEWIGVIASNADTYYASWAKGRFTISRDNSKNTLYLQMNSLRAEDTAVYYCARHPGSAGYGYAVYYAMDPWGQGTLVTVSS VL: DIQMTQSPSSLSASVGDRVTITCKASEDIRYGLNWYQQKPGKAPKLLIYGANTLEAGVPSRFSGSGSGTDFTLTISSLQPEDFATYYCQQGYSTPLTFGGGTKVEIK | 0.0178 µg/mL |  |
| humanized antibody hN2F (antibody, V domains shown) VH: EVQLVESGGGLVQPGGSLRLSCTVSGFSLSTYAMSWVRQAPGKGLEWIGVIASNADTYYASWAKGRFTISRDNSKNTLYLQMNSLRAEDTAVYYCARHPGSAGYGYAVYYAMDPWGQGTLVTVSS VL: DIQMTQSPSSLSASVGDRVTITCKASEDIRYGLNWYQQKPGKAPKLLIYGANTLEAGVPSRFSGSGSGTDFTLTISSLQPEDFATYYCQQGYSTPLTFGGGTKVEIK |  | 0.0246 µg/mL |
| hN2Y (antibody, V domains shown) VH: EVQLVESGGGLVQPGGSLRLSCTVSGFSLSTYAMSWVRQAPGKGLEWIGVIASNADTYYASWAKGRFTISRDNSKNTLYLQMNSLRAEDTAVYYCARHPGSAGYGYAVYYAMDPWGQGTLVTVSS VL: DIQMTQSPSSLSASVGDRVTITCKASEDIRYGLNWYQQKPGKAPKLLIYGANTLEAGVPSRFSGSGSGTDYTLTISSLQPEDFATYYCQQGYSTPLTFGGGTKVEIK | 0.018 µg/mL |  |
| LxC1-G10 (antibody, V domains shown) VH: EVQLVESGGGLVQPGGSLRLSCTVSGFSLSTYAMSWVRQAPGKGLEWIGVIASNADTYYASWAKGRFTISRDNSKNTLYLQMNSLRAEDTAVYYCARHPGSAGYGYAVYYAMDPWGQGTLVTVSS VL: DIQMTQSPSSLSASVGDRVTITCQASERVFYGIDWYQQKPGKAPKLLIYGASALWHGVPSRFSGSGSGTDYTLTISSLQPEDFATYYCQQGYMVPIGFGGGTKVEIK | 0.0169 µg/mL |  |
| humanized antibody hN2Y (antibody, V domains shown) VH: EVQLVESGGGLVQPGGSLRLSCTVSGFSLSTYAMSWVRQAPGKGLEWIGVIASNADTYYASWAKGRFTISRDNSKNTLYLQMNSLRAEDTAVYYCARHPGSAGYGYAVYYAMDPWGQGTLVTVSS VL: DIQMTQSPSSLSASVGDRVTITCKASEDIRYGLNWYQQKPGKAPKLLIYGANTLEAGVPSRFSGSGSGTDYTLTISSLQPEDFATYYCQQGYSTPLTFGGGTKVEIK |  | 0.0382 µg/mL |
| C-A11 (antibody, V domains shown) VH: QSLEESGGRLVTPGTPLTLTCTVSGFSLSTYAMSWVRQAPGKGLEWIGVIASNADTYYASWAKGRITISKTSTTVDLKITSPTTEDTATYFCARHPGSAGYGYAVYYAMDPWGPGTLVTVSS VL: AIEMTQSPSSLAASVGDTVTITCKASEDIRYGLNWYQQKLGIAPKLLIYGANTLEAGVPSRFSGSGSETDYTLTISSVQAEDAGIYYCQQGYSTPLTFGAGTKVEIK | 0.014 µg/mL |  |
| rabbit monoclonal antibody C-A11 (antibody, V domains shown) VH: QSLEESGGRLVTPGTPLTLTCTVSGFSLSTYAMSWVRQAPGKGLEWIGVIASNADTYYASWAKGRITISKTSTTVDLKITSPTTEDTATYFCARHPGSAGYGYAVYYAMDPWGPGTLVTVSS VL: AIEMTQSPSSLAASVGDTVTITCKASEDIRYGLNWYQQKLGIAPKLLIYGANTLEAGVPSRFSGSGSETDYTLTISSVQAEDAGIYYCQQGYSTPLTFGAGTKVEIK |  | 0.027 µg/mL |
